The target in test [1] is T1, mouse IL10R1 (mouse, UniProt Q61727 17-575).
T1 construct: whole, on cells; also called CHO/mouse IL10R1
T1 sequence (looked up): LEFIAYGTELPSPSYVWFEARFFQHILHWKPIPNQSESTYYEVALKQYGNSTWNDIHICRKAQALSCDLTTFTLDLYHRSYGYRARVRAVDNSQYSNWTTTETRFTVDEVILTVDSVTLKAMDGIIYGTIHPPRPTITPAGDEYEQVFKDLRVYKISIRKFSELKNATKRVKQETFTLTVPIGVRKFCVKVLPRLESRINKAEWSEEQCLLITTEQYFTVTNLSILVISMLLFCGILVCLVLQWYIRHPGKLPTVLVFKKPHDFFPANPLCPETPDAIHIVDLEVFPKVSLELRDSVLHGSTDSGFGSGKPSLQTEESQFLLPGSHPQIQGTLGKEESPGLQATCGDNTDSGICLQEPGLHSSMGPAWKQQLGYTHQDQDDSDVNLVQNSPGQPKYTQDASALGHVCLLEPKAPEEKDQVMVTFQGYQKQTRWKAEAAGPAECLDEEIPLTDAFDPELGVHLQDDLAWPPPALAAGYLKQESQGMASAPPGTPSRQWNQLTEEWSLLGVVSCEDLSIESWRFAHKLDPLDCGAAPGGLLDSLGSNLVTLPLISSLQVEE
As to the kind of experiment: FACS on CHO/mouse IL10R1 cells.

Test [2] has as its target T2, cyno IL10R1 (cyno, UniProt A0A2K5WJ66 22-576).
T2 construct: whole, on cells; also called CHO/cyno IL10R1; monkey IL10R1
T2 sequence: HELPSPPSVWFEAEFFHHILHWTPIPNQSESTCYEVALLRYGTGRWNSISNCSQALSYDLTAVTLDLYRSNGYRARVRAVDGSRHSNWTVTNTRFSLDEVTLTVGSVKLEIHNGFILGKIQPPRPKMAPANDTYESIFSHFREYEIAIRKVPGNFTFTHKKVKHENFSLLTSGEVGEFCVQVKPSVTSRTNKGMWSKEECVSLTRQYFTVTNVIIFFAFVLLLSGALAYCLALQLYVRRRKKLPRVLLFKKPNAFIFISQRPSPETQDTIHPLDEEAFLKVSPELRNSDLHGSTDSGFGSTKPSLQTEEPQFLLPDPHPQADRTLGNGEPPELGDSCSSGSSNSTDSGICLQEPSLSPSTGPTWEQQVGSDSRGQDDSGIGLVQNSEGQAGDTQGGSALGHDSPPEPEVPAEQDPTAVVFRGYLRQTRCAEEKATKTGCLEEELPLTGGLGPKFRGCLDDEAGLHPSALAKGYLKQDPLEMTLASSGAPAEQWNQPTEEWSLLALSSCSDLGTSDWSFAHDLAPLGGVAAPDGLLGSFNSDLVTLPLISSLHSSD
In words: FACS on CHO/cyno IL10R1 cells.

Test [3] deals with T3, human PD1 (human, UniProt Q15116 25-288).
T3 construct: whole, on cells; also called hPD1; CHO-hPD1
In words: FACS on CHO/human PD-1 cells.

For test [4], the target named is T4, mouse PD-1 (mouse, UniProt Q02242 25-288).
T4 construct: whole, on cells; also called CHO/mouse PD-1
T4 sequence (looked up): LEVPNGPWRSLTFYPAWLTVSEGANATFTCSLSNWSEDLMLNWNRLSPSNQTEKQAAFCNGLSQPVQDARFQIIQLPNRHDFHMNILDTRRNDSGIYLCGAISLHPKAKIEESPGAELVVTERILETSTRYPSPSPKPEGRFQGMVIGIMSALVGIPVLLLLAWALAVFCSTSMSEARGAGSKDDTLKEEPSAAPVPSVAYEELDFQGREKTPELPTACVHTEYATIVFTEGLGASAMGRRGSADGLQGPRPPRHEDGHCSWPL
As to the kind of experiment: FACS on CHO/mouse PD-1 cells.

Test [5] deals with T5, human IL10R1 (human, UniProt Q13651 22-578).
T5 construct: whole, on cells; also called CHO/human IL10R1
T5 sequence (looked up): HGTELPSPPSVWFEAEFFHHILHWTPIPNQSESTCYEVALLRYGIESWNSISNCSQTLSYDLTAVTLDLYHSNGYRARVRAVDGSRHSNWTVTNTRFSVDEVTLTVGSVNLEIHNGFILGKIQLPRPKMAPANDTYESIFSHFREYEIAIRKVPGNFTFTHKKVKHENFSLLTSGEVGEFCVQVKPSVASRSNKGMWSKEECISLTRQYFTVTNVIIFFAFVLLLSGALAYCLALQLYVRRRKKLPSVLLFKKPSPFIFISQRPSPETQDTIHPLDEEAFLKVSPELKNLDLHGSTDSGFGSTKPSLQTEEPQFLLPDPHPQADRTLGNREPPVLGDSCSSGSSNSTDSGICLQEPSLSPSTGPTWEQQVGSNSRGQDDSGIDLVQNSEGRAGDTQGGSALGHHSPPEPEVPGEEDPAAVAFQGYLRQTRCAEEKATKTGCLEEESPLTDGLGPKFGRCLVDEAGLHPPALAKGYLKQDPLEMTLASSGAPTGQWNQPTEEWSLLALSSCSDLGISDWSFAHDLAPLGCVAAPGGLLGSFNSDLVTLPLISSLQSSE
As to the kind of experiment: FACS on CHO/human IL10R1 cells.

Test [6] addresses T3, human PD1. As to the kind of experiment: FACS binding on CHO/human PD-1 cells (Example 12).
Test [7] concerns the target T3, human PD1. As to the kind of experiment: FACS: blocking of human PD-L1-mFC (1 µg/mL) binding to CHO/human PD-1 cells.
For test [8], the target named is T3, human PD1. In words: cell-based or functional assay.
The target of test [9] is T6, cyno PD-1 (cyno, UniProt B0LAJ3 25-288).
T6 construct: also called CHO/cyno PD-1; monkey PD-1
As to the kind of experiment: FACS on CHO/cyno PD-1 cells.

In general, EC50 refers to the concentration needed to bring the measured effect to its halfway point. By IC50 is commonly meant the concentration needed to halve the response being measured. Lower therefore signals greater potency in that assay.

T3 sequence (Q15116 25-288): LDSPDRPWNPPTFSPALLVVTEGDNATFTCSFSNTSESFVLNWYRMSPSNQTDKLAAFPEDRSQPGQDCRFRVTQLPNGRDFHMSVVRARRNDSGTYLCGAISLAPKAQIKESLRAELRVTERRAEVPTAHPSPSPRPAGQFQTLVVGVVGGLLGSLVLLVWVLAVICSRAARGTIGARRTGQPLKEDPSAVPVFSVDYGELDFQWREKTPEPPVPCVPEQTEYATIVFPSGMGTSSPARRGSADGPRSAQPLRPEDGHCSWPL
T6 sequence (B0LAJ3 entry or part of it limits assumed, form in doubt): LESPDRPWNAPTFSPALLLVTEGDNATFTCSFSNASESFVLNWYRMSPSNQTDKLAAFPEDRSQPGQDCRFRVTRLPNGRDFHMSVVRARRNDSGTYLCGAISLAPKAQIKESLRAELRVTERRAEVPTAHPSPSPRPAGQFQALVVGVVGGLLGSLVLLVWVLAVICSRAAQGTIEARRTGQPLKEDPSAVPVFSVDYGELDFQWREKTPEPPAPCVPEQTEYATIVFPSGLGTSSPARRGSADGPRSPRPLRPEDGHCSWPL

B1: R0862, hIgG1 antibody containing an L234A/L235A mutation (antibody, V domains shown)
VH: QVQLVESGGGVVQPGRSLRLSCAASGFTFSSYGMHWVRQAPGKGLEWVAAIWYDGSNKYYTDSVKGRFTISRDNSKNTLYLQMNSLRAEDTAVYYCARDLRGVMYFDLWGRGTLVTVSS
VL: EIVLTQSPATLSLSPGERATLSCRASQSVSRYLAWYQQKPGQAPRLLIYDASNRATGIPARFSGSGSGTDFTLTISSLEPEDFAVYYCQLRNNWPLTFGGGTKVEIKR
notes: Isotype control; also called ISO-hIgG1.8; copies: 2 + 2
Take B1: the binding result in [1], in test [2], in [3], in [4] and in [5] was “no binding” each time.

B2: anti-PD1 antibody R1152 (antibody, human IgG1, kappa, L234A L235A, V domains shown)
VH: QVQLVQSGAEVKKPGASVKVSCKASGYTFTTYYMYWVRQAPGQGLEWMGGINPSNGGTNYAQKFQGRATMTVDTSTSTAYMELSSLRSEDTAVYYCTRRDSNYDGGFDYWGQGTTVTVSS
VL: DIQMTQSPSSLSASVGDRVTITCRASKSVSTSGYSYMHWYQQKPGKAPKLLIYLAYHLESGVPSRFSGSGSGTDFTLTISSLQPEDFATYYCQHSWELPITFGQGTKLEIKR
notes: also called PD1 monoclonal antibody R1152; PD-1 parent antibody
For B2, the results for the EC50 in test [6], in test [3] and in test [9] were 7.75 nM, 5.47 nM and 3.47 nM, respectively. For the same molecule, in test [4], the binding result is given as “no binding”. The same molecule registered an IC50 in test [7] of 8.34 nM. Also, in test [8], the “EC50 of luciferase reporter gene activity (CHO-OKT3-hPD-L1 cells + Jurkat-NFAT-luc-hPD-1 cells)” value is 6.84 nM.
